One block for each binder: values may come before it.
Target: LSD1 (aa 171–852) and RCOR1 (aa 286–485) complex (truncated LC) (UniProt O60341 171-852; Q9UKL0 286-485)
Assay: MST; Cy5-labelled His-tag U2AF2 fragments mixed with serially diluted truncated LSD1/RCOR1
Details: both partners purified

Kd: 16 µM
B1: His-tag U2AF2 fragment (aa 241–471), Cy5-labelled (domain or fragment)
chain: NPSVYVPGVVSTVVPDSAHKLFIGGLPNYLNDDQVKELLTSFGPLKAFNLVKDSATGLSKGYAFCEYVDINVTDQAIAGLNGMQLGDKKLLVQRASVGAKNATLVSPPSTINQTPVTLQVPGLMSSQVQMGGHPTEVLCLMNMVLPEELLDDEEYEEIVEDVRDECSKYGLVKSIEIPRPVDGVEVPGCGKIFVEFTSVFDCQKAMQGLTGRKFANRVVVTKYCDPDSYHR
modifications: Cy5 dye at lysine residues (reactive NHS-ester dye)
notes: U2AF2, aa 241-471, composed of RRM2 and UHM; also called U2AF2 241–471; Fluor-U2AF2

Kd: 14 µM
B2: His-tag U2AF2 fragment (aa 85–471), Cy5-labelled (domain or fragment)
chain: KKKVRKYWDVPPPGFEHITPMQYKAMQAAGQIPATALLPTMTPDGLAVTPTPVPVVGSQMTRQARRLYVGNIPFGITEEAMMDFFNAQMRLGGLTQAPGNPVLAVQINQDKNFAFLEFRSVDETTQAMAFDGIIFQGQSLKIRRPHDYQPLPGMSENPSVYVPGVVSTVVPDSAHKLFIGGLPNYLNDDQVKELLTSFGPLKAFNLVKDSATGLSKGYAFCEYVDINVTDQAIAGLNGMQLGDKKLLVQRASVGAKNATLVSPPSTINQTPVTLQVPGLMSSQVQMGGHPTEVLCLMNMVLPEELLDDEEYEEIVEDVRDECSKYGLVKSIEIPRPVDGVEVPGCGKIFVEFTSVFDCQKAMQGLTGRKFANRVVVTKYCDPDSYHR
modifications: Cy5 dye at lysine residues (reactive NHS-ester dye)
notes: U2AF2, aa 85-471; also called U2AF2 85–471; Fluor-U2AF2

From PMC12892918, “CoREST complex inhibition alters RNA splicing to promote neoantigen expression and enhance tumor immunity” (JCI Insight, 2025)
